Where a chain is given by its changes, count along the chain named.
Test system: endogenous PP1α
Assay: GFP affinity capture / co-IP of endogenous PP1α with GFP-tagged bait
Assay type: binding, human
Conditions: HEK 293T cells, 24 h post-transfection, GFP-Trap, immunoblot, representative of two independent experiments
Source text: Bacterial expression plasmids encoding the mouse PP1γ catalytic domain (residues 7–300)-H6 and pUL21-H6, and mammalian expression vectors encoding pUL21(FV242AA)-GFP, pORF38-GFP and pORF38(FV255AA)-GFP, were described previously ([23]). We note that the mouse and human PP1γ catalytic domains share 100% amino acid identity. pORF38-NLT-H6 was generated by sub-cloning residues 1 to 263 of ORF38 into the vector pOPTnH ([52]). pUL21-RVxF-H6 was generated by inserting the mutations A237V and V239F into pUL21-H6 by QuikChange site-directed mutagenesis. Human PP1α was cloned from HeLa cell cDNA into a vector derived from pF5K (Promega) with an N-terminal Myc epitope tag via restriction-based cloning, and point mutations were introduced into Myc-PP1α by QuikChange mutagenesis. A plasmid encoding pUL21-GFP was generated by sub-cloning a codon-optimized synthetic UL21 gene (GeneArt) into pEGFP-N1 (Clontech), yielding an identical pUL21-GFP amino acid sequence as used in ([23]). pUL21-ΔL, -ΔR and -ΔLR were generated from this vector via inverse PCR, and point mutations were introduced via QuikChange mutagenesis.
Mycoplasma-free human embryonic kidney 293T (HEK 293T) cells (American Type Culture Collection #CRL-3216) were maintained in Dulbecco’s modified Eagle’s medium (DMEM) with high glucose (Merck), supplemented with 10% (v/v) heat-inactivated fetal calf serum and 2 mM L-glutamine (complete DMEM) in a humidified 5% CO2 atmosphere at 37 °C. The identity of the cell line was not independently confirmed.
Monolayers of HEK 293T cells were transfected with 7.7 μg of DNA per 9 cm dish, using 18 μg/ml 25 kDa branched polyethylenimine (Merck) or using TransIt-LT1 (Mirus) in accordance with the manufacturer’s instructions. Cells were harvested 24 h post-transfection and incubated for 30 min in ice-cold 10 mM Tris pH 7.5, 150 mM NaCl, 0.5 mM EDTA, 0.5% Igepal CA-630 (a.k.a. NP-40), 1% (v/v) EDTA-free protease inhibitor cocktail (Merck) before clarification at 21,000×g for 10 min at 4 °C. Lysate protein concentrations were measured using the bicinchoninic acid (BCA) assay (Pierce) and normalized before affinity capture using GFP-Trap resin (ChromoTek) following the manufacturer’s protocol. Samples were eluted by heating the resin to 95 °C for 5 min in 45 μl 2 × SDS-PAGE loading buffer. Proteins were separated by SDS-PAGE and transferred to 0.45 μm nitrocellulose membranes (PerkinElmer or Cytiva). Membranes were stained with Ponceau S and imaged using a G:Box XX9 (Syngene) before blocking in Tris-buffered saline with 0.1% TWEEN-20 (TBS-T) supplemented with 5% (w/v) non-fat milk powder. Immunoblotting was performed using antibodies diluted in blocking buffer as listed below, and immunoblots were imaged using an Odyssey CLx (LI-COR Biosciences). Densitometry was performed using Image Studio Lite version 5.2 (LI-COR Biosciences), and statistical tests were performed using Prism version 7 (GraphPad).
The following primary antibodies and dilutions were used for immunoblotting: rabbit anti-CERT 1:10,000 (Abcam #Ab72536), mouse anti-PP1α 1:1000 (Santa Cruz #sc-271762), mouse anti-Myc 1:4000 (Millipore #05–724), rat anti-tubulin (clone YL1/2) hybridoma supernatant 1:40 ([54]). The anti-CERT antibody was validated using a knock-out cell line. The anti-PP1α antibody has been validated by siRNA knockdown ([55]). The anti-Myc antibody was validated using control experiments lacking Myc-tagged transfected constructs ([56]). The anti-tubulin antibody has been validated by immunofluorescence microscopy, immuno-electron microscopy and radiolabeled immunosorbent assay ([54]). Secondary antibodies from LI-COR Biosciences were diluted 1:10,000 as follows: IRDye 680RD goat anti-rat (#926–68029) and goat anti-mouse (#926–68020), or IRDye 800CW goat anti-rabbit (#926–32221).

B1: pORF38-GFP (protein)
chain: MEFPYHSTVSYNGVTFYFNERATRAYFICGGCLISIPRKHGGEIAKFGHVVRGVGPGDRSVASYVRSELNRTGKTWAVSSNNNCVFLDRVALLAAGSGAVDRDLCGTFDVEVEDPTLADYLVSLPVTHLTLVAGVDVTRENKLKLFPTPTAINTTNGFMYVPNEASFSLVYMRMLELPESLQELVSGLFDGTPEIRDALNGSNDDEKTSIIVSRRAADVVTEDVKADDVPISGEPYSEKQPRRRKKSDHITLSNFVQIRTIPRVMDIWDPRHKATTHCIRALSCAVFFADEVIFKARKWPGLEDELNEARETIYTAVVAVYGERGELPFFGHAYGRDLTSCQRFVIVQYILSRWEAFNCYAVIEDLTRSYVNALPSDDDTDQVAQDLIRTIVDTANSLLREVGFIGTLAETLLFLPLPQLPCYKETSHLAKKEGVRILRLAKTGVGLSDTVPVDVSVTERHEYEISRYLDTLYSGDPCYNGAVRLCRLLGSSIPIALYYNTISGNAFEPYFAGRRYIAYLGALFFGRVHQTPFGDGKKTQR
modifications: left off: GFP, end not stated, kept
  Co-IP of endogenous PP1α: consistently co-immunoprecipitated more efficiently by pORF38-GFP than by pUL21-GFP
Listed as pORF38
  Co-IP of endogenous PP1α: efficiently precipitate endogenous PP1α

B2: pORF38-FV255AA (protein)
chain: B1 chain with F255A, V256A
modifications: left off: GFP, end not stated, kept
  Co-IP of endogenous PP1α: the interaction is disrupted by mutation of the TROPPO motif
Listed as FV255AA
  Co-IP of endogenous PP1α: abolished binding to PP1

B3: pUL21ΔLR (protein)
chain: MELSYATTMHYRDVVFYVTTDRNRAYFVCGGCVYSVGRPCASQPGEIAKFGLVVRGTGPDDRVVANYVRSELRQRGLQDVRPIGEDEVFLDSVCLLNPNVSSELDVINTNDVEVLDECLAEYCTSLRTSPGVLISGLRVRAQDRIIELFEHPTIVNVSSHFVYTPSPYVFALAQAHLPRLPSSLEALVSGLFDGIPAPRQPLDAHNPRTDVVITGTVSEFVQVKHIDRVGPAGVSAPPGPTLRELWWVFYAADRALEEPRADSGLTREEVRAVRGFREQAWKLFGSAGAPRAFIGAALGLSPLQKLAVYYYIIHRERRLSPFPALVRLVGRYTQRHGLYVPRPDDPVLADAINGLFRDALAAGTTAEQLLMFDLLPPKDVPVGSDVQADSTALLRFIESQRLAVPGGVISPEHVAYLGAFLSVLYAGRGRMSAATHTARLTGVTSLVLAVGDVDRLSAFDRGAAGAASRTRAAGYLDVLLTVRLARSQHGQSV
modifications: left off: GFP (from the vector pEGFP-N1), end not stated, kept
  Co-IP of endogenous PP1α: completely abolishes PP1α binding

B4: pUL21ΔR (protein)
chain: MELSYATTMHYRDVVFYVTTDRNRAYFVCGGCVYSVGRPCASQPGEIAKFGLVVRGTGPDDRVVANYVRSELRQRGLQDVRPIGEDEVFLDSVCLLNPNVSSELDVINTNDVEVLDECLAEYCTSLRTSPGVLISGLRVRAQDRIIELFEHPTIVNVSSHFVYTPSPYVFALAQAHLPRLPSSLEALVSGLFDGIPAPRQPLDAHNPRTDVVITGRRAPRPIAGSGAGSGGAGAKRATVSEFVQVKHIDRVGPAGVSAPPGPTLRELWWVFYAADRALEEPRADSGLTREEVRAVRGFREQAWKLFGSAGAPRAFIGAALGLSPLQKLAVYYYIIHRERRLSPFPALVRLVGRYTQRHGLYVPRPDDPVLADAINGLFRDALAAGTTAEQLLMFDLLPPKDVPVGSDVQADSTALLRFIESQRLAVPGGVISPEHVAYLGAFLSVLYAGRGRMSAATHTARLTGVTSLVLAVGDVDRLSAFDRGAAGAASRTRAAGYLDVLLTVRLARSQHGQSV
modifications: left off: GFP (from the vector pEGFP-N1), end not stated, kept
  Co-IP of endogenous PP1α: binding is retained

B5: pUL21-FV242AA (protein)
chain: MELSYATTMHYRDVVFYVTTDRNRAYFVCGGCVYSVGRPCASQPGEIAKFGLVVRGTGPDDRVVANYVRSELRQRGLQDVRPIGEDEVFLDSVCLLNPNVSSELDVINTNDVEVLDECLAEYCTSLRTSPGVLISGLRVRAQDRIIELFEHPTIVNVSSHFVYTPSPYVFALAQAHLPRLPSSLEALVSGLFDGIPAPRQPLDAHNPRTDVVITGRRAPRPIAGSGAGSGGAGAKRATVSEAAQVKHIDRVGPAGVSPAPPPNNTDSSSLVPGAQDSAPPGPTLRELWWVFYAADRALEEPRADSGLTREEVRAVRGFREQAWKLFGSAGAPRAFIGAALGLSPLQKLAVYYYIIHRERRLSPFPALVRLVGRYTQRHGLYVPRPDDPVLADAINGLFRDALAAGTTAEQLLMFDLLPPKDVPVGSDVQADSTALLRFIESQRLAVPGGVISPEHVAYLGAFLSVLYAGRGRMSAATHTARLTGVTSLVLAVGDVDRLSAFDRGAAGAASRTRAAGYLDVLLTVRLARSQHGQSV
modifications: left off: GFP, end not stated, kept
  Co-IP of endogenous PP1α: the interaction is disrupted by mutation of the TROPPO motif
Listed as FV242AA
  Co-IP of endogenous PP1α: PP1α coIP was abolished

B6: pUL21ΔL (protein)
chain: MELSYATTMHYRDVVFYVTTDRNRAYFVCGGCVYSVGRPCASQPGEIAKFGLVVRGTGPDDRVVANYVRSELRQRGLQDVRPIGEDEVFLDSVCLLNPNVSSELDVINTNDVEVLDECLAEYCTSLRTSPGVLISGLRVRAQDRIIELFEHPTIVNVSSHFVYTPSPYVFALAQAHLPRLPSSLEALVSGLFDGIPAPRQPLDAHNPRTDVVITGTVSEFVQVKHIDRVGPAGVSPAPPPNNTDSSSLVPGAQDSAPPGPTLRELWWVFYAADRALEEPRADSGLTREEVRAVRGFREQAWKLFGSAGAPRAFIGAALGLSPLQKLAVYYYIIHRERRLSPFPALVRLVGRYTQRHGLYVPRPDDPVLADAINGLFRDALAAGTTAEQLLMFDLLPPKDVPVGSDVQADSTALLRFIESQRLAVPGGVISPEHVAYLGAFLSVLYAGRGRMSAATHTARLTGVTSLVLAVGDVDRLSAFDRGAAGAASRTRAAGYLDVLLTVRLARSQHGQSV
modifications: left off: GFP (from the vector pEGFP-N1), end not stated, kept
  Co-IP of endogenous PP1α: completely abolishes PP1α binding
